Data reported in article PMC2709974 (Journal of molecular biology, 2009).

T1: IscR-C92A/C98A/C104A (clusterless) (Escherichia coli, UniProt P0AGK8 1-162, C92A;C98A;C104A)
T1 sequence: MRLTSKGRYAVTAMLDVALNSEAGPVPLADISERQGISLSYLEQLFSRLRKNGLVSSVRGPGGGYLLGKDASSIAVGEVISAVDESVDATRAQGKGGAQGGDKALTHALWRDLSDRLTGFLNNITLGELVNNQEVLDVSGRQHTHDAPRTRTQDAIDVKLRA

T2: IscR wild-type (as purified, about 60% [2Fe-2S] occupied) (Escherichia coli, UniProt P0AGK8 1-162)
T2 sequence: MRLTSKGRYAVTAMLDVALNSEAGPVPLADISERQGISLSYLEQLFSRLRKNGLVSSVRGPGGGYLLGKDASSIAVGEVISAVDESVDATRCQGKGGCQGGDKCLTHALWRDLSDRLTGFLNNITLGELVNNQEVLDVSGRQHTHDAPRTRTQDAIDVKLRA


target: T1, IscR-C92A/C98A/C104A (clusterless); assay: fluorescence anisotropy

Binder	Kd [nM]
hyaA site, labeled 30-mer (dsDNA) DNA 1: ATAAATCCACACAGTTTGTATTGTTTTGTG DNA 2: CACAAAACAATACAAACTGTGTGGATTTAT	44 ± 3

Target: the molecule itself
Assay: AUC

Binder	stoichiometry N
IscR-C92A/C98A/C104A (natural protein, Escherichia coli, UniProt P0AGK8 1-162, looked up) MRLTSKGRYAVTAMLDVALNSEAGPVPLADISERQGISLSYLEQLFSRLRKNGLVSSVRGPGGGYLLGKDASSIAVGEVISAVDESVDATRAQGKGGAQGGDKALTHALWRDLSDRLTGFLNNITLGELVNNQEVLDVSGRQHTHDAPRTRTQDAIDVKLRA	2

target: T2, IscR wild-type (as purified, about 60% …); assay: fluorescence anisotropy

Binder	binding result
randomized hya site, labeled 30-mer (dsDNA) DNA 1: ATCATCCGTCTTATGTTAATTATAATGGTG DNA 2: CACCATTATAATTAACATAAGACGGATGAT	no binding

Target: the molecule itself
Assay: SEC

Binder	stoichiometry N
wild-type IscR (as purified, 35% occupied with [2Fe-2S] cluster) (natural protein, Escherichia coli, UniProt P0AGK8 1-162, looked up) MRLTSKGRYAVTAMLDVALNSEAGPVPLADISERQGISLSYLEQLFSRLRKNGLVSSVRGPGGGYLLGKDASSIAVGEVISAVDESVDATRCQGKGGCQGGDKCLTHALWRDLSDRLTGFLNNITLGELVNNQEVLDVSGRQHTHDAPRTRTQDAIDVKLRA	2
apo-IscR (generated from wild-type IscR by treatment with 2,2'-dipyridyl) (natural protein, Escherichia coli, UniProt P0AGK8 1-162, looked up) MRLTSKGRYAVTAMLDVALNSEAGPVPLADISERQGISLSYLEQLFSRLRKNGLVSSVRGPGGGYLLGKDASSIAVGEVISAVDESVDATRCQGKGGCQGGDKCLTHALWRDLSDRLTGFLNNITLGELVNNQEVLDVSGRQHTHDAPRTRTQDAIDVKLRA	2

target: T1, IscR-C92A/C98A/C104A (clusterless); assay: competition

Binder	IC50 [nM]
hya -36(T to A) (dsDNA) DNA 1: ATAAATCCACACAGTTTGTATAGTTTTGTG DNA 2: CACAAAACTATACAAACTGTGTGGATTTAT	52
hya -42 (dsDNA) DNA 1: ATAAATCCACACAGTATGTATTGTTTTGTG DNA 2: CACAAAACAATACATACTGTGTGGATTTAT	73
hya -41 (dsDNA) DNA 1: ATAAATCCACACAGTTAGTATTGTTTTGTG DNA 2: CACAAAACAATACTAACTGTGTGGATTTAT	34
hya -47 (dsDNA) DNA 1: ATAAATCCACTCAGTTTGTATTGTTTTGTG DNA 2: CACAAAACAATACAAACTGAGTGGATTTAT	190
hya -42,-41 (dsDNA) DNA 1: ATAAATCCACACAGTGGGTATTGTTTTGTG DNA 2: CACAAAACAATACCCACTGTGTGGATTTAT	300
hya -36(T to G) (dsDNA) DNA 1: ATAAATCCACACAGTTTGTATGGTTTTGTG DNA 2: CACAAAACCATACAAACTGTGTGGATTTAT	16
hya -48(C to T) (dsDNA) DNA 1: ATAAATCCATACAGTTTGTATTGTTTTGTG DNA 2: CACAAAACAATACAAACTGTATGGATTTAT	48
hya -35 (dsDNA) DNA 1: ATAAATCCACACAGTTTGTATTTTTTTGTG DNA 2: CACAAAAAAATACAAACTGTGTGGATTTAT	505
hya -34/33 (dsDNA) DNA 1: ATAAATCCACACAGTTTGTATTGAATTGTG DNA 2: CACAATTCAATACAAACTGTGTGGATTTAT	39
hya -44,-43 (dsDNA) DNA 1: ATAAATCCACACATGTTGTATTGTTTTGTG DNA 2: CACAAAACAATACAACATGTGTGGATTTAT	89
hyaA competitor (dsDNA) DNA 1: ATAAATCCACACAGTTTGTATTGTTTTGTG DNA 2: CACAAAACAATACAAACTGTGTGGATTTAT	29
Palindrome1 (dsDNA) DNA 1: ATAAATACATACAGTTTGTATGTATTTGTG DNA 2: CACAAATACATACAAACTGTATGTATTTAT	202
hya -55 (A to C) (dsDNA) DNA 1: ATCAATCCACACAGTTTGTATTGTTTTGTG DNA 2: CACAAAACAATACAAACTGTGTGGATTGAT	394
hya -49 (dsDNA) DNA 1: ATAAATCCTCACAGTTTGTATTGTTTTGTG DNA 2: CACAAAACAATACAAACTGTGAGGATTTAT	44
hya -54,-48,-45,-37 (dsDNA) DNA 1: ATATATCCAGACTGTTTGTAATGTTTTGTG DNA 2: CACAAAACATTACAAACAGTCTGGATATAT	80
hya -32,-30 (dsDNA) DNA 1: ATAAATCCACACAGTTTGTATTGTTATCTG DNA 2: CAGATAACAATACAAACTGTGTGGATTTAT	18
hya -46 (dsDNA) DNA 1: ATAAATCCACATAGTTTGTATTGTTTTGTG DNA 2: CACAAAACAATACAAACTATGTGGATTTAT	37
hya -53,-52 (dsDNA) DNA 1: ATAATCCCACACAGTTTGTATTGTTTTGTG DNA 2: CACAAAACAATACAAACTGTGTGGGATTAT	33
hya -50(C to A) (dsDNA) DNA 1: ATAAATCAACACAGTTTGTATTGTTTTGTG DNA 2: CACAAAACAATACAAACTGTGTTGATTTAT	268
hya -36(T to C) (dsDNA) DNA 1: ATAAATCCACACAGTTTGTATCGTTTTGTG DNA 2: CACAAAACGATACAAACTGTGTGGATTTAT	134
hya -44,-42,-41,-40 (dsDNA) DNA 1: ATAAATCCACACATTGGTTATTGTTTTGTG DNA 2: CACAAAACAATAACCAATGTGTGGATTTAT	785
hya -39 (dsDNA) DNA 1: ATAAATCCACACAGTTTGAATTGTTTTGTG DNA 2: CACAAAACAATTCAAACTGTGTGGATTTAT	199
hya -51 (dsDNA) DNA 1: ATAAATGCACACAGTTTGTATTGTTTTGTG DNA 2: CACAAAACAATACAAACTGTGTGCATTTAT	400
hya -31 (dsDNA) DNA 1: ATAAATCCACACAGTTTGTATTGTTTGGTG DNA 2: CACCAAACAATACAAACTGTGTGGATTTAT	263
hya -40 (dsDNA) DNA 1: ATAAATCCACACAGTTTCTATTGTTTTGTG DNA 2: CACAAAACAATAGAAACTGTGTGGATTTAT	39
Palindrome1-2 (dsDNA) DNA 1: ATAAATCCATACAGTTTGTATGGATTTGTG DNA 2: CACAAATCCATACAAACTGTATGGATTTAT	~10

target: T2, IscR wild-type (as purified, about 60% …); assay: fluorescence anisotropy; remark: another data set of the same source

Binder	Kd [nM]
hyaA site, labeled 30-mer (dsDNA) DNA 1: ATAAATCCACACAGTTTGTATTGTTTTGTG DNA 2: CACAAAACAATACAAACTGTGTGGATTTAT	34 ± 2

target: T1, IscR-C92A/C98A/C104A (clusterless); assay: fluorescence anisotropy; remark: another data set of the same source

Binder	binding result
randomized hya site, labeled 30-mer (dsDNA) DNA 1: ATCATCCGTCTTATGTTAATTATAATGGTG DNA 2: CACCATTATAATTAACATAAGACGGATGAT	no binding
